The text below walks through data of article PMC3024946, “Hydroxyproline-containing collagen analogs trigger the release and activation of collagen-sequestered proMMP-2 by competition with prodomain-derived peptide P33-42” (Fibrogenesis & Tissue Repair, 2011).

Usually Kd stands for the constant that tells how readily two partners part at equilibrium. A low value points to higher affinity.

One series deals with ProMMP-2. In words: DQ-gelatine degradation assay with MMP-2. Particulars: MMP alone; 10 ng; 5 h at 25°C; plateau (actMMP-2) or baseline (proMMP-2) level. The format is biochemical, human.
Series [1] concerns collagen type I (CI). As to the kind of experiment: SPR binding of MMPs to immobilized CI, nonactivating buffer. Also on record: species or system human. Particulars: for Off rate / Kd: without (GPO)10, MMP 100 nM, PBS, 0.05% Tween 20, 25°C; for Off rate: mean from at least three experiments; for Kd: mean ± SD, at least three experiments. As for the experimental part:
(§1) Sensor chip preparations and SPR measurements were performed using a BiacoreX device and the Bia-evaluation software (version 3.2; Biacore, Uppsala, Sweden). The pepsin-resistant triple-helical part of human fibrillar CI (100 μg/ml) in 10 mM acetate coupling buffer, pH 4.8, was immobilized to a dextran matrix-sensor chip at a flow rate of 5 μl/min, resulting in 5,500 resonance units from CI covalently linked via its primary amino groups. The control flow cell was prepared using the coupling buffer without CI. Surfaces were activated and blocked as described previously. Immediately after thawing, pro- and actMMP-2 and pro- and actMMP-9 were diluted to 100 to 250 nM in MMP activity buffer or in PBS and 0.05% (vol/vol) Tween 20. For SPR measurements, flow rates were 10 μl/min at 25°C, and equilibrium was typically reached after 30 to 60 s. The effects of (GPO)10, GAP, (POG)5, (GPP)10 and P33-42 on MMP-2 and MMP-9 binding to CI and their enzymatic activity were determined by adding the binding competitors to the (pro- and act)MMP-2 and MMP-9 solution in 10- to 150-fold molar excesses. Effects independent of MMP-2 and MMP-9 activity were monitored in the presence of Ro 28-2653 (1 μM) during SPR analysis. The gelatinase inhibitor Ro 28-2653 was a generous gift from H.-W. Krell (Roche, Grenzach-Wyhlen, Germany). Sensor surfaces were regenerated with 10 mM glycine, pH 2.3, for 1 min between runs, and sensor chips were used up to 25 times. Kinetic parameters were analyzed using the 1:1 binding model with drifting baseline and subtraction of the control flow cell binding from sensorgrams obtained with immobilized CI. Binding constants (Kd) were calculated from the association (ka) and dissociation rates (kd) obtained from individual binding curves at different concentrations. Individual drifts of the resonance signal were fitted locally, and χ^2 values of 0.2% to 1.0% of the maximum resonance value were considered good fits.

Series [2] in a line: In situ binding of MMPs to fibrotic liver sections. Also on record: species or system human. Particulars: immunohistochemistry; 25 ng MMP, 30 min. How it is done:
Human cirrhotic liver cryostat sections (5 μm) were air-dried and fixed in ice-cold acetone for 10 min. Tissue sections were rehydrated with PBS and incubated with 25 ng/50 μl of the respective proMMP and actMMP for 30 min or were left untreated. After thorough washing with PBS, antibodies specific for human MMP-9 (clone MAB911; R&D Systems, Minneapolis, MN, USA) and human MMP-2 (clone 75-7F7; Oncogene, Cambridge, MA, USA) were applied, and primary antibody binding was detected using the alkaline phosphatase-antialkaline phosphatase detection system (Dako, Hamburg, Germany). An irrelevant primary mouse antibody served as control. Nuclei were counterstained with Hemalaun, and slides were examined by standard light microscopy.

The test system of series [3] is collagen type I (CI). As to the kind of experiment: SPR binding of MMP-2 to CI, MMP activity buffer with Ro 28-2653. Also on record: species or system human. How it is done: as §1
(In general: Surface plasmon resonance follows binding to a sensor surface in real time, without labels.)

B1: ProMMP-2: 72-kDa latent proform of human recombinant MMP-2 (protein)
chain: APSPIIKFPGDVAPKTDKELAVQYLNTFYGCPKESCNLFVLKDTLKKMQKFFGLPQTGDLDQNTIETMRKPRCGNPDVANYNFFPRKPKWDKNQITYRIIGYTPDLDPETVDDAFARAFQVWSDVTPLRFSRIHDGEADIMINFGRWEHGDGYPFDGKDGLLAHAFAPGTGVGGDSHFDDDELWTLGEGQVVRVKYGNADGEYCKFPFLFNGKEYNSCTDTGRSDGFLWCSTTYNFEKDGKYGFCPHEALFTMGGNAEGQPCKFPFRFQGTSYDSCTTEGRTDGYRWCGTTEDYDRDKKYGFCPETAMSTVGGNSEGAPCVFPFTFLGNKYESCTSAGRSDGKMWCATTANYDDDRKWGFCPDQGYSLFLVAAHEFGHAMGLEHSQDPGALMAPIYTYTKNFRLSQDDIKGIQELYGASPDIDLGTGPTPTLGPVTPEICKQDIVFDGIAQIRGEIFFFKDRFIWRTVTPRDKPMGPLLVATFWPELPEKIDAVYEAPQEEKAVFFAGNEYWIYSASTLERGYPKPLTSLGLPPDVQRVDAAFNWSKNKKTYIFAGDKFWRYNEVKKKMDPGFPKLIADAWNAIPDNLDAVVDLQGGGHSYFFKGAYYLKLENQSLKSVKFGSIKSDWLGC
modifications: [125I]-Bolton-Hunter label in the solid-phase assays (dot blot, microwells); Cy2 label in the tissue release experiment; no label told for SPR and immunohistochemistry
Take B1: the DQ-gelatine conversion entry with ProMMP-2 is on record as “about 200 relative fluorescence units”. Moreover, the “reduction of binding upon MMP activation” value is recorded as 2.5 -fold in the series with collagen type I (CI) [1] (nonactivating buffer) and 35 -fold in the series with collagen type I (CI) [3] (MMP activity buffer with Ro 28-2653). In addition, the Off rate in the series with collagen type I (CI) [1] is ~0.48 s⁻¹. Besides, the Kd turned out to be 70 ± 30 nM at collagen type I (CI) [1] and 7.1 ± 0.1 nM on collagen type I (CI) [3] (no competitor, MMP-2 100 nM, MMP activity buffer, 1 μM Ro 28-2653, 25°C, mean ± SD, at least three experiments). The “binding to liver sections” value in series [2] was “preferential staining of fibrotic septa”. Also, the “binding enhancement to CI” value in the series on collagen type I (CI) [3] (MMP activity buffer with Ro 28-2653 vs nonactivating buffer) was 10 -fold.

B2: ProMMP-9: 92-kDa latent proform of human recombinant MMP-9 (protein)
chain: APRQRQSTLVLFPGDLRTNLTDRQLAEEYLYRYGYTRVAEMRGESKSLGPALLLLQKQLSLPETGELDSATLKAMRTPRCGVPDLGRFQTFEGDLKWHHHNITYWIQNYSEDLPRAVIDDAFARAFALWSAVTPLTFTRVYSRDADIVIQFGVAEHGDGYPFDGKDGLLAHAFPPGPGIQGDAHFDDDELWSLGKGVVVPTRFGNADGAACHFPFIFEGRSYSACTTDGRSDGLPWCSTTANYDTDDRFGFCPSERLYTQDGNADGKPCQFPFIFQGQSYSACTTDGRSDGYRWCATTANYDRDKLFGFCPTRADSTVMGGNSAGELCVFPFTFLGKEYSTCTSEGRGDGRLWCATTSNFDSDKKWGFCPDQGYSLFLVAAHEFGHALGLDHSSVPEALMYPMYRFTEGPPLHKDDVNGIRHLYGPRPEPEPRPPTTTTPQPTAPPTVCPTGPPTVHPSERPTAGPTGPPSAGPTGPPTAGPSTATTVPLSPVDDACNVNIFDAIAEIGNQLYLFKDGKYWRFSEGRGSRPQGPFLIADKWPALPRKLDSVFEERLSKKLFFFSGRQVWVYTGASVLGPRRLDKLGLGADVAQVTGALRSGRGKMLLFSGRRLWRFDVKAQMVDPRSASEVDRMFPGVPLDTHDVFQYREKAYFCQDRFYWRVSSRSELNQVDQVGYVTYDILQCPED
modifications: [125I]-Bolton-Hunter label in the solid-phase assays (dot blot, microwells); no label told for SPR and immunohistochemistry
In the series with collagen type I (CI) [1], B2 displayed an Off rate of 0.32 s⁻¹ and a Kd of 120 ± 90 nM. Moreover, the “binding to liver sections” value in series [2] is recorded as “preferential staining of fibrotic septa”.
